To fix the notation:
B1: OR4K15 (parent)
chain: GUUAACGGUCAUAGGCCAUGGAAACUAGGAGCACCAUUUCGCUGCCAGUGAAGAAAUGAACAAAGAAAAUCUGGGCCAGGCAGGCAUCAAAAGAAAUAGUCUUGCGCUCAACCAGAAAGUCUGUAAUCAUUUUAAGGGUA

The variants in the data set derive from B1. Put plainly: self-cleavage, relative activity (ratio to wild type); higher = more cleavage; in vitro, sequencing; the parent is a self-cleaving ribozyme.
Regarding A24G A98G, the self-cleavage is 0.51. Under A24G A98U stands 1.74. With C25U U49C the figure was 1.45; with A24U A111G, 0.03. With A24G U57C the figure was 1.51; with A24U U97G, 1.9. Turning to U26C A66G, the self-cleavage worked out at 0.9.

In the case of A24G A92U, the self-cleavage amounted to 1.45. With A24U U127C the figure was 1.36.

In the case of U26C A52U, the self-cleavage turned out to be 0.88. For the variant U26C A52G, the self-cleavage was 1.82. Under A23U A110U stands 0.93; under U26C U87A, 1.6.

In the case of C25U A118G, the self-cleavage is 0.68. With A24G A59G the figure was 1.23. As for A24G A59C, the self-cleavage was found to be 0.

A27G U57C: the self-cleavage worked out at 0.49. With A27G A68U the figure was 1.1; with A27G C105A, 0.04. A24G A68G: the self-cleavage was found to be 1.01.

Turning to A24G A68C, the self-cleavage stood at 1.49. With A24G G28A the figure was 1.11; with U26C A96U, 1.89.

Take A24G U131A: the self-cleavage was determined as 1.22. Under A24U A126G stands 1.15; under A24C U57A, 1.21. Consider U26C A140U, for which the self-cleavage amounted to 0.35. With U26C U57C the figure was 1.44. With A27G A52G, the self-cleavage came to 1.44. With A27G U103A the figure was 0.45; with A27G A96G, 1.1. Under U26C A116U stands 0.18; under U26C A114G, 0.04. With A27G A114U the figure was 0.16; with A24U A117G, 1.85. With U26G A114U, the self-cleavage was 0.06. Under C25U A94U stands 1.62; under C25A A135G, 1.61. With A27G A59U the figure was 1.24; with A27G A59G, 1.03. Under A24C A92G stands 1.9. Turning to U26A, the self-cleavage is 1.07.

As to U26C, the self-cleavage was 1.26. As for U26G, the self-cleavage was determined as 1.33. With U26A A54C the figure was 1.61; with A27G A91G, 1.22. Under A27G A91C stands 1.42.

On to U26A U122C, for which the self-cleavage amounted to 0.72. With U26A U122A the figure was 0.73.

On to A27G A30U, for which the self-cleavage stood at 1.61. As for A27G A30C, the self-cleavage was determined as 1.14.

For the variant A24C U100C, the self-cleavage stood at 1.84.

Regarding A24U A89G, the self-cleavage turned out to be 0.56.

Take A24G G136C: the self-cleavage worked out at 1.47.

With U26C A117G, the self-cleavage came out at 1.36. As for U26C A117U, the self-cleavage came out at 0.5.

Take A24G A51U: the self-cleavage was determined as 1.19. With A24G A51G the figure was 1.27; with A24C A62G, 1.2; with U26C A62G, 1.47.

As for A24G G104A, the self-cleavage is 0.04.

Regarding U26C A27C, the self-cleavage stood at 2.1.

For U26C U122A, the self-cleavage came out at 1.87. Under A27G U102C stands 1.06; under A23U U132C, 1.03. Under A24G G41A stands 1.45; under A24G G41U, 1.18; under U26C U43A, 1.29. Under U26C U39C stands 1.63; under U26C U49C, 1.41. As to U26C A51G, the self-cleavage stood at 1.72. Under A24U U122C stands 1.08; under C25U A30G, 1.24. Turning to A24C A68G, the self-cleavage came out at 1.52.

Consider A24C A126G, for which the self-cleavage worked out at 0.

With A24C A59G, the self-cleavage was 1.51. Under A24G A78G stands 0.21; under A24G A78U, 0.39; under A23U C32U, 2.28. With C25U A33G the figure was 1.12; with U26A A140G, 2.37. Under A24G G93A stands 0.88; under A24G U122A, 1.19. As to A24G U122C, the self-cleavage amounted to 0.84. As for U26C G44U, the self-cleavage came out at 1.99. With A24G A114U the figure was 0.19. Under U26A A118G stands 0.34; under C25U A92G, 0.6; under A24G A66G, 0.73.

For A24G A66U, the self-cleavage is 1.11. Under U26C A60U stands 1.43. Under A24G A52U stands 0.64; under U26A A63C, 1.71; under U26A A63U, 2.02. On to A27G A36U, for which the self-cleavage came out at 0.85. Under A27G A90G stands 1.41.

Consider A23U A126G, for which the self-cleavage came out at 0.96. On to A24G A125G, for which the self-cleavage was found to be 0.43. Under U26C A30G stands 1.25; under U26C G58U, 1.48; under U26C A126G, 0.72. With A24C A94G the figure was 1.63; with A24G A95U, 1.16. With A24G U130G the figure was 0.56. On to A24G U130C, for which the self-cleavage was determined as 1.38. With A27C A78C the figure was 0.25; with A27G A33C, 1.32.

For the variant A24G U26C, the self-cleavage is 0.81. A24U A95G: the self-cleavage amounted to 1.95. With C25U A56G the figure was 0.46; with A27G A78U, 0.34. With A24G A33C the figure was 1.62. Under A24C A47U stands 0.89.

As for C25U A86U, the self-cleavage turned out to be 0.61. Under C25U A86G stands 1.2. As to U26C G93U, the self-cleavage stood at 0.86. For the variant U26C U37C, the self-cleavage worked out at 0.95. Under U26A A66C stands 0.9; under U26C A89U, 0.5. With A24G A54U the figure was 1.48. For A23U U102C, the self-cleavage is 1.7. With A27C A135U the figure was 2.25; with C25U A60G, 1.88. Consider A27G A110C, for which the self-cleavage was determined as 0.43. With A27G A110G the figure was 0.1; with A24G A118G, 1.01. With A24G A118U the figure was 0.51. Consider A27G A126G, for which the self-cleavage was found to be 0.8. With A24G G75A the figure was 0.15.

With A24C U139C, the self-cleavage came to 2.1. Under A24G C85U stands 0.95; under A24G C85G, 0.97; under A24U A55U, 0.93. Turning to C25U A51G, the self-cleavage was found to be 2.48. With C25U U100C the figure was 2.01. Under A24C G80A stands 0.19; under A27G A47G, 0.68.

With A24G A90G, the self-cleavage came out at 1.03. With U26A A59G, the self-cleavage amounted to 1.18.

Consider A24U A96G, for which the self-cleavage was found to be 0.87. Under A27G A116U stands 0.05; under A24G A91U, 1.61; under A24C A118G, 0.96. With A24C U127C the figure was 1.03.

In the case of A24C A66G, the self-cleavage amounted to 1.16. Under C25A A33G stands 0.9; under A24G A30G, 1.01; under A24G A30C, 1.22. Consider A27G, for which the self-cleavage is 1.1. With A27C the figure was 1.21; with A24C A89G, 1.68. With C25A A95G the figure was 0.89; with U26C U132C, 0.52. With A24G G79A the figure was 0.18; with A24G U38C, 1.46. Turning to A24C A82G, the self-cleavage was found to be 0.62.

For A24G A63G, the self-cleavage stood at 1.17.

Consider A24C, for which the self-cleavage was determined as 1.29. Turning to A24U, the self-cleavage turned out to be 1.41. With A24G the figure was 1.09. Under A27G G123U stands 1.67; under A23U U122C, 1; under A24C U72A, 0.28.

Consider A24C A78G, for which the self-cleavage stood at 0.32. On to A24C A78C, for which the self-cleavage is 0.36. With A24G C88U the figure was 0.95; with A27G U97A, 1.24.

These data come from the RNAGym collection of RNA variant scans (doi:10.7554/elife.90254).
